# Experimental data taken from patent US20260001953A1 (TWIST BIOSCIENCE, published 2026).
# Changes are numbered by the printed parent chain.
# T1: mouse CD117 (mouse, UniProt P05532)
# T1 construct: antigen of the Carterra SPR kinetics; also called murine CD117
# T1 sequence (receptor, looked up): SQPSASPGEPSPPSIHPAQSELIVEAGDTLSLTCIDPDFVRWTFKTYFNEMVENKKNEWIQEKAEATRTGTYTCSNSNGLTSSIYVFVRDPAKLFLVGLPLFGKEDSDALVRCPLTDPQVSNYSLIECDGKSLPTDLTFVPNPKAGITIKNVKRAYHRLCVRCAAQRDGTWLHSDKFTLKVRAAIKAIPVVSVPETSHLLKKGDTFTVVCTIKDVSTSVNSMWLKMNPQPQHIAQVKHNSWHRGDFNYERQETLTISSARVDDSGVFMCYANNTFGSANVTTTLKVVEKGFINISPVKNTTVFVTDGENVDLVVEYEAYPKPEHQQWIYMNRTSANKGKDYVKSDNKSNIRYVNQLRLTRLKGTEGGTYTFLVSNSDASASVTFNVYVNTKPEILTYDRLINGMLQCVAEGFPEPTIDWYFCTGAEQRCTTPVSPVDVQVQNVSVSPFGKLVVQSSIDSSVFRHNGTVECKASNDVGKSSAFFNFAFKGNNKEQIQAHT
# B1: SIGLEC-8-30 (antibody, human IgG1, kappa, V domains shown)
# VH: EVQLLESGGGLVQPGGSLRLSCAASGFTFSHYALSWVRQAPGKGLEWVSIISGSGDTTYYADSVKGRFTISRDNSKNTLYLQMNSLRAEDTAVYYCAKATYFYDSSGYRRATYFDYWGQGTLVTVSS
# VL: DIQMTQSPSSLSASVGDRVTITCRASQGISRHLNWYQQKPGKAPKLLIYAESTLQSGVPSRFSGSGSGTDFTLTISSLQPEDFATYYCQQTYTLPYTFGGGTKVEIKR
# notes: tested as expressed and purified mAb
# B2: SIGLEC-8-31 (antibody, human IgG1, kappa, V domains shown)
# VH: EVQLLESGGGLVQPGGSLRLSCAASGFTFSTDAMSWVRQAPGKGLEWVSTVSGSGASTYYADSVKGRFTISRDNSKNTLYLQMNSLRAEDTAVYYCAREDSGKYLSLDYWGQGTLVTVSS
# VL: B1 VL with G28S, S30T, R31N, H32Y, E51S, Q55E, T91S, T93I, L94T, Y96L
# notes: as for B1
# B3: SIGLEC-8-53 (antibody, human IgG1, kappa, V domains shown)
# VH: B2 VH with T31S, D32S, S35A, T50E, V51I, G53D, A56G, D100E, Y109H
# VL: DIQMTQSPSSLSASVGDRVTITCRASQTIINYLNWYQQKPGKAPKLLIYGASNVQSGVPSRFSGSGSGTDFTLTISSLQPEDFATYYCQQSYVTPPTFGGGTKVEIKR
# notes: as for B1
# B4: SIGLEC-8-45 (antibody, human IgG1, kappa, V domains shown)
# VH: EVQLLESGGGLVQPGGSLRLSCAASGFTFSSGAMSWVRQAPGKGLEWVSTISGSGASTYYADSVKGRFTISRDNSKNTLYLQMNSLRAEDTAVYYCAREGSSSWNAFDIWGQGTLVTVSS
# VL: B3 VL with I30A, G50A, V54L, Q55E, S56D, V93N, P96I
# notes: as for B1
# B5: SIGLEC-8-61 (antibody, human IgG1, kappa, V domains shown)
# VH: EVQLLESGGGLVQPGGSLRLSCAASGFTFSSSAMTWVRQAPGKGLEWVTAISESGGSTYYADSVKGRFTISRDNSKNTLYLQMNSLRAEDTAVYYCAREGGDYYYGIDVWGQGTLVTVSS
# VL: B3 VL with S26G, T28S, I30N, N31R, V54L, Y92F, V93T, P96L
# notes: tested as expressed and purified mAb; also called SIGLEC-61
# B6: SIGLEC-8-60 (antibody, human IgG1, kappa, V domains shown)
# VH: B2 VH with F29L, T31N, D32Y, S35T, D100N
# VL: B1 VL with G28N, S30A, R31S, H32Y, E51T, T53D, T93N, L94I, Y96L
# notes: as for B1
# B7: SIGLEC-8-4 (antibody, human IgG1, kappa, V domains shown)
# VH: B4 VH with T28S, G32D, T50G, S54G, A56G, T58A, S101A, S103N, W104Y, N105A
# VL: DIQMTQSPSSLSASVEDRVTITCRAGQSITPYLNWYQQKPGKAPKLLIYATSSLHSGVPSRFSGSGSGTDFTLTISSLQPEDFATYYCQQSHSSPLTFGGGTKVEIKR
# notes: as for B1
# B8: SIGLEC-8-20 (antibody, human IgG1, kappa, V domains shown)
# VH: EVQLLESGGGLVQPGGSLRLSCAASGFTFSSFDMTWVRQAPGKGLEWVSSISGGGGSTYYADSVKGRFTISRDNSKNTLYLQMNSLRAEDTAVYYCAREDGSGSYSMDVWGQGTLVTVSS
# VL: B3 VL with T28S, I30D, N34H, G50A, V54L, Q55E, S56G, V93K, P96V
# notes: as for B1
# B9: SIGLEC-8-52 (antibody, human IgG1, kappa, V domains shown)
# VH: B2 VH with S30R, T31S, D32Y, A33V, T50S, V51I, G53L, A56G, D100E, Y109H
# VL: DIQMTQSPSSLSASVGDRVTITCRASQSVSNFLNWYQQKPGKAPKLLIYAASNLEGGVPSRFSGSGSGTDFTLTISSLQPEDFATYYCQQTYSTPITFGGGTKVEIKR
# notes: as for B1
# B10: CD117-8 (antibody, human IgG1, kappa, V domains shown)
# VH: EVQLLESGGGLVQPGGSLRLSCAASGFTLTSYAMSWVRQAPGKGLEWVSTISGSGGYTYYADSVKGRFTISRDNSKNTLYLQMNSLRAEDTAVYYCARDSGYDRGLDYWGQGTLVTVSS
# VL: B3 VL with T28S, I29V, I30R, N31T, G50D, N53T, V54L, V93N, P96L, T97A
# notes: detected with anti-human IgG in FACS
# B11: CD117-10 (antibody, human IgG1, kappa, V domains shown)
# VH: EVQLLESGGGLVQPGGSLRLSCAASGFIFSSYAMTWVRQAPGKGLEWVSSISGRGGNTYYADSVKGRFTISRDNSKNTLYLQMNSLRAEDTAVYYCAKMMDDFYDAFNMWGQGTLVTVSS
# VL: B3 VL with T28S, I30R, N31T, G50D, N53S, V54L, Q55E, Y92F, V93T, P96Y
# notes: as for B10
# B12: CD117-4 (antibody, human IgG1, kappa, V domains shown)
# VH: EVQLLESGGGLVQPGGSLRLSCAASGFTFSRSAMSWVRQAPGKGLEWVSAISAGGGNTYYADSVKGRFTISRDNSKNTLYLQMNSLRAEDTAVYYCAREQDLWSGTFDYWGQGTLVTVSS
# VL: B3 VL with S26R, T28S, I30S, N31S, G50D, N53S, V54L, Q55R, V93K, P96W
# notes: as for B10
# B13: CD117-13 (antibody, human IgG1, kappa, V domains shown)
# VH: B10 VH
# VL: B7 VL with E16G, G26S, S28N, T30Y, P31T, A50D, T51A, H92S, S94T, L96Y
# notes: as for B10
# B14: CD117-17 (antibody, human IgG1, kappa, V domains shown)
# VH: EVQLLESGGGLVQPGGSLRLSCAASGFTFSDYPMSWVRQAPGKGLEWVSAIGGSGGDTYYADSVKGRFTISRDNSKNTLYLQMNSLRAEDTAVYYCARGAYDGEGFDYWGQGTLVTVSS
# VL: B3 VL with I30S, N31G, G50D, N53T, V54L, S56R, S91N, V93R, P96F
# notes: as for B10
# B15: CD117-15 (antibody, human IgG1, kappa, V domains shown)
# VH: B14 VH
# VL: B9 VL with A25T, V29I, S30G, N31S, F32Y, A50S, N53R, G56S, S93N, I96W
# notes: as for B10
# B16: CD117-3 (antibody, human IgG1, kappa, V domains shown)
# VH: EVQLLESGGGLVQPGGSLRLSCAASGFSFSSYAMSWVRQAPGKGLEWVSAISGTGGNTYYADSVKGRFTISRDNSKNTLYLQMNSLRAEDTAVYYCARRNDFWSDAFDIWGQGTLVTVSS
# VL: B7 VL with E16G, G26S, S28N, T30Y, P31T, A50D, T51A, H92S, S94T, L96Y
# notes: as for B10
# Target: T2, Sialic acid-binding immunoglobulin-like lectin 8 (SIGLEC-8), antigen of the Carterra SPR studies (UniProt Q9NYZ4 17-363, limits assumed)
# Test: Carterra SPR kinetics, summary table
# Summary of the method: (§1)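 Values are rate constants or dissociation constants for antibodies binding SIGLEC-8, measured by surface plasmon resonance on a Carterra instrument. The antibodies were drawn from synthetic libraries through four rounds of bead-based panning. Clones picked by clonal ELISA were expressed and purified prior to measurement.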
# T2 sequence (Q9NYZ4 17-363 limits assumed): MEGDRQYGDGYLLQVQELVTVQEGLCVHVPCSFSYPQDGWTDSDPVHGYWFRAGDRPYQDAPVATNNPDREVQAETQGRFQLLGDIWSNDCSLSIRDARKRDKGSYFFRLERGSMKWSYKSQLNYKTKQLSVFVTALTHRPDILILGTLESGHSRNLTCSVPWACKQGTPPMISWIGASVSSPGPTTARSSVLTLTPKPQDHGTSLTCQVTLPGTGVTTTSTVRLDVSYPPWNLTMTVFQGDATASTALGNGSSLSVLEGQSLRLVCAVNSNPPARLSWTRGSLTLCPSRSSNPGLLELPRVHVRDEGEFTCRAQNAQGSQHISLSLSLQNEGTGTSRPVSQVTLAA
koff [s⁻¹],kon [M⁻¹ s⁻¹],Binder
0.000124,145000,B1
5.63e-05,152000,B2
4.78e-05,259000,B3
8.37e-05,146000,B4
3.67e-05,390000,B5
0.000116,129000,B6
3.12e-05,165000,B7
3.4e-05,445000,B8
6.22e-05,84900,B9

# Target: T3, CD117 transiently expressed on Expi293 cells (UniProt P10721 26-976, limits assumed)
# T3 construct: whole, on cells; Two cassettes are described (P2A mVenus and direct mVenus fusion); also called CD117 transient cells; the transient cell line
# Test: FACS, MFI expressing / parental cells
# Experimental: (§2) The transient expression of CD117 was validated with a control antibody, Expi293 (FIGS. 17A-17B). Expi293, […], was transiently transfected with CD117 48-hours post-transfection. The secondary antibody used was APC Goat anti-human IgG (diluted 1:400). 100,000 cells per well were blocked with 1×PBS+0.5% BSA for 1 hour, stained with 100 μL of the primary antibody for 1 hour, and stained with the secondary antibody for one hour, all with 3× washes in between each staining.
# T3 sequence (P10721 26-976 limits assumed): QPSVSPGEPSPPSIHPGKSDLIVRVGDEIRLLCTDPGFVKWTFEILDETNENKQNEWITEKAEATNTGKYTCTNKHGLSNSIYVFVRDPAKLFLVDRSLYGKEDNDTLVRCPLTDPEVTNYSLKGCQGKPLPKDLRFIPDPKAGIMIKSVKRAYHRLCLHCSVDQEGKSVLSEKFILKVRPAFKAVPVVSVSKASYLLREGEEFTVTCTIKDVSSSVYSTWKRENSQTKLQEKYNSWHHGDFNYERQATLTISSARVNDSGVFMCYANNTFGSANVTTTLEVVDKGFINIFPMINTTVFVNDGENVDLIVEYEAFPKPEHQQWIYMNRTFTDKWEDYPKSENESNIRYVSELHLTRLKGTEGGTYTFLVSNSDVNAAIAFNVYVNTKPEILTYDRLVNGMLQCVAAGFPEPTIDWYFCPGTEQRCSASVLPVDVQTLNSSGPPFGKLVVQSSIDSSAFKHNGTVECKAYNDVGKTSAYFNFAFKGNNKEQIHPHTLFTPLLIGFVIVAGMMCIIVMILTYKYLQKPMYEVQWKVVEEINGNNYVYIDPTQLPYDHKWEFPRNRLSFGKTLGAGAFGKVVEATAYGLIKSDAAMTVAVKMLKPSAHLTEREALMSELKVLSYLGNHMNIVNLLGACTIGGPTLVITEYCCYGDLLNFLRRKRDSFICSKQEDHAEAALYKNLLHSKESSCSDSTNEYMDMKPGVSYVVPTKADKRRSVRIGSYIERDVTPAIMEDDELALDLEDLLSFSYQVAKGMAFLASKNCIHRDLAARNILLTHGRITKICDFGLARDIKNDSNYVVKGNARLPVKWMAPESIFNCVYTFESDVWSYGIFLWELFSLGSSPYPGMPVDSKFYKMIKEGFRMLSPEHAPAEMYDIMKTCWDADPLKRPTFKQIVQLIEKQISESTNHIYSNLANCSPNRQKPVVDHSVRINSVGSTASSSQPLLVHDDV
row,MFI Ratio,Binder
1,4.25,B10
2,21.2,B11
3,10.5,B12
4,18.6,B13
5,20.1,B14

# Target: T4, cyno CD117 (Macaca fascicularis, UniProt A0A7N9CP24)
# T4 construct: antigen of the Carterra SPR kinetics; also called cynomolgus monkey CD117
# Test: Carterra SPR, cyno CD117
# Experimental: (§3) To further evaluate the antibodies discovered during the screens, 21 clones were selected for detailed characterization and were analyzed for target binding kinetics by a Carterra SPR instrument. The binding kinetics of the anti-CD117 antibodies for human CD117, cynomolgus monkey CD117, and murine CD117 are shown in FIG. 29A-29B.
# T4 sequence (A0A7N9CP24 entry or part of it): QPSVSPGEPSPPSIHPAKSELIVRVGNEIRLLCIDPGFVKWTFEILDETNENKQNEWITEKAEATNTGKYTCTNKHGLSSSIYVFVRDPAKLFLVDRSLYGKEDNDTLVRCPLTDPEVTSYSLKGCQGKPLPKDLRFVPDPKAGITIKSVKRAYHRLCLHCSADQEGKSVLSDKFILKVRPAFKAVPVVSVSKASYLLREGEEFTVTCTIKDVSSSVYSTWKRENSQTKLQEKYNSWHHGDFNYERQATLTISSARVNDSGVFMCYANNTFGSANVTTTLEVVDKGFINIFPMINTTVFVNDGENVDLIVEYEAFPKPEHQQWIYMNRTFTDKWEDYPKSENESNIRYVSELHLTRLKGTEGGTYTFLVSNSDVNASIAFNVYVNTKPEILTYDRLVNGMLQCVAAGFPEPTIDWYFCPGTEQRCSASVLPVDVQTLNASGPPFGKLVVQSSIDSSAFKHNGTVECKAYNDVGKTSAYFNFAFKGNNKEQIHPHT
Kd [nM],koff [s⁻¹],kon [M⁻¹ s⁻¹],Binder
26600,0.916,34400,B11
480,0.156,324000,B13
92.6,0.0673,727000,B14

# Target: T5, SIGLEC-8 transiently expressed on cells (UniProt Q9NYZ4 17-499, limits assumed)
# T5 construct: whole, on cells; Two cassettes are described (P2A mVenus and direct mVenus fusion); also called the transient line; pTT5-SIGLEC-8 P2A mVenus
# Test: cell binding titration, transient SIGLEC-8 line
# T5 sequence (Q9NYZ4 17-499 limits assumed): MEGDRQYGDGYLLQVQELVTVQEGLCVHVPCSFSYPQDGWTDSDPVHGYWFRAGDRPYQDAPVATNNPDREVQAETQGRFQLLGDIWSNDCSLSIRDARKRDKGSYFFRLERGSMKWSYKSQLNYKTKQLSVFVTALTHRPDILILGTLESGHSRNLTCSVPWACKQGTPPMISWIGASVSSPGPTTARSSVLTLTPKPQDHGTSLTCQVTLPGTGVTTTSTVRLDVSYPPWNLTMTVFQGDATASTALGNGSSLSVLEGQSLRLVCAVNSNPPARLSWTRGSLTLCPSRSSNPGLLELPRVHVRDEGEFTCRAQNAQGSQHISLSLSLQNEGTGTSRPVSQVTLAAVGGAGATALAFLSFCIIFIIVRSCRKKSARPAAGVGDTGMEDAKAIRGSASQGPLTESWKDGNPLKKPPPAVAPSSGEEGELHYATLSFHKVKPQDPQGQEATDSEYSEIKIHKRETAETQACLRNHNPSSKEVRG
row,EC50 [nM],Binder
1,1.5,B1
2,1.33,B2
3,0.69,B3
4,1.81,B4
5,0.494,B5
6,0.653,B6
7,2.38,B7
8,0.972,B8
9,4.07,B9

# Target: T2, Sialic acid-binding immunoglobulin-like …
# Test: Carterra SPR
# Summary of the method: as §1
row,Kd [nM],Binder
1,0.856,B1
2,0.37,B2
3,0.185,B3
4,0.574,B4
5,0.0942,B5
6,0.895,B6
7,0.189,B7
8,0.0764,B8
9,0.733,B9

# Target: T6, Cluster of differentiation 117 (CD117), antigen of epitope binning and ELISA (UniProt P10721 26-520, limits assumed)
# T6 construct: also called tyrosine-protein kinase KIT; mast/stem cell growth factor receptor (SCFR)
# Test: Carterra SPR, human CD117
# Experimental: as §3
# T6 sequence (P10721 26-520 limits assumed): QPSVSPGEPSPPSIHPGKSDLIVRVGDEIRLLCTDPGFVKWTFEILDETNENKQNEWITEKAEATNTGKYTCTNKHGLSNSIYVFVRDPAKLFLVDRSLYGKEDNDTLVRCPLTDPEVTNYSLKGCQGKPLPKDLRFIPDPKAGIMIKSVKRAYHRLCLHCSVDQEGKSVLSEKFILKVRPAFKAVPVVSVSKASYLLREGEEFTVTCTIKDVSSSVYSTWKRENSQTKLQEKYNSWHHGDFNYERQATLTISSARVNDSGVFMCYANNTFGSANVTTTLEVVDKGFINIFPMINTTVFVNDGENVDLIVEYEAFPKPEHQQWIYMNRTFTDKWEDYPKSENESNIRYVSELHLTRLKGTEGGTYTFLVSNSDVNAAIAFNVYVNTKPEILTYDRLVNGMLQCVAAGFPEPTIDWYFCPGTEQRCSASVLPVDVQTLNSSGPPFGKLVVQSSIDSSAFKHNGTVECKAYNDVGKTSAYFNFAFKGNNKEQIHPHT
binding result,Kd [nM],koff [s⁻¹],kon [M⁻¹ s⁻¹],Binder
no binding,–,–,–,B10
no binding,–,–,–,B11
no binding,–,–,–,B12
–,5.17,0.00877,1.7e+06,B13
–,3,0.00406,1.35e+06,B14

# Target: T1, mouse CD117
# Test: Carterra SPR, mouse CD117
# Experimental: as §3
row,binding result,Binder
1,no binding,B11
2,no binding,B15
3,no binding,B16
4,no binding,B13
5,no binding,B14

# Target: T3, CD117 transiently expressed on Expi293 …
# Test: FACS cell binding, Expi293 transiently expressing CD117
# Experimental: as §2
row,EC50 [nM],Binder
1,351,B10
2,91.3,B11
3,3.42,B12
4,11,B13
5,7.58,B14
